Assay results from patent publication US12679878B2, “CRF2 receptor agonists and their use in therapy” (SANOFI, priority 2020, dated 2026).
Starred links: 1 amine or outer side, 2 acyl side, 3 side chain; linkers in the order of their positions; H or OH if unused. Non-standard residues stand in square brackets, D forms with d. Groups on a side chain read outwards from the residue. No end group written: not given here. *: point of attachment. C18 diacid = O=C(O)CCCCCCCCCCCCCCCCC(=O)*; γGlu = O=C(O)[C@H](CCC(=O)[*:2])N[*:1]; AEEA = NCCOCCOCC(=O)O; Aib = CC(C)(N)C(=O)O

T1: CRF1R receptor (anti-target) (UniProt P34998 24-415, limits assumed)
T1 sequence (looked up): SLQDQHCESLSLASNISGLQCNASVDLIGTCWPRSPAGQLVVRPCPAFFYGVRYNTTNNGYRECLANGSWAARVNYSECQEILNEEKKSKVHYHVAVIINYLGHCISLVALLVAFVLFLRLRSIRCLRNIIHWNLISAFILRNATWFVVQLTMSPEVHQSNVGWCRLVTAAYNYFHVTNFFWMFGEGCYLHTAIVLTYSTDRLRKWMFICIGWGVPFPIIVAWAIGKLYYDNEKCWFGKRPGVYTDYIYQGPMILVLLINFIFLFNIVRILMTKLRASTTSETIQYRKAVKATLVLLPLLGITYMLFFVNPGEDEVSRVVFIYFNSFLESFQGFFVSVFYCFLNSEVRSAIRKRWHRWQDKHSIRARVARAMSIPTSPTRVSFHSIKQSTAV

B1: peptide of SEQ ID NO: 149 (peptide)
peptide: IVLSLD[dV]PIKLK([AEEA-AEEA-γGlu-C18 diacid])QILLKQERQKK[Aib]REQAETNKRILERV-NH2
modifications: N-terminus assumed
SMILES: CC[C@H](C)[C@H](N)C(=O)N[C@H](C(=O)N[C@@H](CC(C)C)C(=O)N[C@@H](CO)C(=O)N[C@@H](CC(C)C)C(=O)N[C@@H](CC(=O)O)C(=O)N[C@@H](C(=O)N1CCC[C@H]1C(=O)N[C@H](C(=O)N[C@@H](CCCCN)C(=O)N[C@@H](CC(C)C)C(=O)N[C@@H](CCCCNC(=O)COCCOCCNC(=O)COCCOCCNC(=O)CC[C@H](NC(=O)CCCCCCCCCCCCCCCCC(=O)O)C(=O)O)C(=O)N[C@@H](CCC(N)=O)C(=O)N[C@H](C(=O)N[C@@H](CC(C)C)C(=O)N[C@@H](CC(C)C)C(=O)N[C@@H](CCCCN)C(=O)N[C@@H](CCC(N)=O)C(=O)N[C@@H](CCC(=O)O)C(=O)N[C@@H](CCCNC(=N)N)C(=O)N[C@@H](CCC(N)=O)C(=O)N[C@@H](CCCCN)C(=O)N[C@@H](CCCCN)C(=O)NC(C)(C)C(=O)N[C@@H](CCCNC(=N)N)C(=O)N[C@@H](CCC(=O)O)C(=O)N[C@@H](CCC(N)=O)C(=O)N[C@@H](C)C(=O)N[C@@H](CCC(=O)O)C(=O)N[C@H](C(=O)N[C@@H](CC(N)=O)C(=O)N[C@@H](CCCCN)C(=O)N[C@@H](CCCNC(=N)N)C(=O)N[C@H](C(=O)N[C@@H](CC(C)C)C(=O)N[C@@H](CCC(=O)O)C(=O)N[C@@H](CCCNC(=N)N)C(=O)N[C@H](C(N)=O)C(C)C)[C@@H](C)CC)[C@@H](C)O)[C@@H](C)CC)[C@@H](C)CC)C(C)C)C(C)C
B2: peptide of SEQ ID NO: 150 (peptide)
peptide: IVLSLD[dV]PIGLK([AEEA-AEEA-γGlu-C18 diacid])QILLKQERQKK[Aib]RQQAETNKRILERV-NH2
modifications: N-terminus assumed
SMILES: CC[C@H](C)[C@H](N)C(=O)N[C@H](C(=O)N[C@@H](CC(C)C)C(=O)N[C@@H](CO)C(=O)N[C@@H](CC(C)C)C(=O)N[C@@H](CC(=O)O)C(=O)N[C@@H](C(=O)N1CCC[C@H]1C(=O)N[C@H](C(=O)NCC(=O)N[C@@H](CC(C)C)C(=O)N[C@@H](CCCCNC(=O)COCCOCCNC(=O)COCCOCCNC(=O)CC[C@H](NC(=O)CCCCCCCCCCCCCCCCC(=O)O)C(=O)O)C(=O)N[C@@H](CCC(N)=O)C(=O)N[C@H](C(=O)N[C@@H](CC(C)C)C(=O)N[C@@H](CC(C)C)C(=O)N[C@@H](CCCCN)C(=O)N[C@@H](CCC(N)=O)C(=O)N[C@@H](CCC(=O)O)C(=O)N[C@@H](CCCNC(=N)N)C(=O)N[C@@H](CCC(N)=O)C(=O)N[C@@H](CCCCN)C(=O)N[C@@H](CCCCN)C(=O)NC(C)(C)C(=O)N[C@@H](CCCNC(=N)N)C(=O)N[C@@H](CCC(N)=O)C(=O)N[C@@H](CCC(N)=O)C(=O)N[C@@H](C)C(=O)N[C@@H](CCC(=O)O)C(=O)N[C@H](C(=O)N[C@@H](CC(N)=O)C(=O)N[C@@H](CCCCN)C(=O)N[C@@H](CCCNC(=N)N)C(=O)N[C@H](C(=O)N[C@@H](CC(C)C)C(=O)N[C@@H](CCC(=O)O)C(=O)N[C@@H](CCCNC(=N)N)C(=O)N[C@H](C(N)=O)C(C)C)[C@@H](C)CC)[C@@H](C)O)[C@@H](C)CC)[C@@H](C)CC)C(C)C)C(C)C
B3: peptide of SEQ ID NO: 152 (peptide)
peptide: IVLSLDVPIKLK([AEEA-AEEA-γGlu-C18 diacid])QILLKQERQKK[Aib]REQAETNKRILERV-NH2
modifications: N-terminus assumed
SMILES: CC[C@H](C)[C@H](N)C(=O)N[C@H](C(=O)N[C@@H](CC(C)C)C(=O)N[C@@H](CO)C(=O)N[C@@H](CC(C)C)C(=O)N[C@@H](CC(=O)O)C(=O)N[C@H](C(=O)N1CCC[C@H]1C(=O)N[C@H](C(=O)N[C@@H](CCCCN)C(=O)N[C@@H](CC(C)C)C(=O)N[C@@H](CCCCNC(=O)COCCOCCNC(=O)COCCOCCNC(=O)CC[C@H](NC(=O)CCCCCCCCCCCCCCCCC(=O)O)C(=O)O)C(=O)N[C@@H](CCC(N)=O)C(=O)N[C@H](C(=O)N[C@@H](CC(C)C)C(=O)N[C@@H](CC(C)C)C(=O)N[C@@H](CCCCN)C(=O)N[C@@H](CCC(N)=O)C(=O)N[C@@H](CCC(=O)O)C(=O)N[C@@H](CCCNC(=N)N)C(=O)N[C@@H](CCC(N)=O)C(=O)N[C@@H](CCCCN)C(=O)N[C@@H](CCCCN)C(=O)NC(C)(C)C(=O)N[C@@H](CCCNC(=N)N)C(=O)N[C@@H](CCC(=O)O)C(=O)N[C@@H](CCC(N)=O)C(=O)N[C@@H](C)C(=O)N[C@@H](CCC(=O)O)C(=O)N[C@H](C(=O)N[C@@H](CC(N)=O)C(=O)N[C@@H](CCCCN)C(=O)N[C@@H](CCCNC(=N)N)C(=O)N[C@H](C(=O)N[C@@H](CC(C)C)C(=O)N[C@@H](CCC(=O)O)C(=O)N[C@@H](CCCNC(=N)N)C(=O)N[C@H](C(N)=O)C(C)C)[C@@H](C)CC)[C@@H](C)O)[C@@H](C)CC)[C@@H](C)CC)C(C)C)C(C)C
B4: peptide of SEQ ID NO: 134 (peptide)
peptide: IVLSLD[dV]PIKLK([AEEA-AEEA-γGlu-C18 diacid])QILLKQERQK[Aib]QREKAEKNKQILAQV-NH2
modifications: N-terminus assumed
SMILES: CC[C@H](C)[C@H](N)C(=O)N[C@H](C(=O)N[C@@H](CC(C)C)C(=O)N[C@@H](CO)C(=O)N[C@@H](CC(C)C)C(=O)N[C@@H](CC(=O)O)C(=O)N[C@@H](C(=O)N1CCC[C@H]1C(=O)N[C@H](C(=O)N[C@@H](CCCCN)C(=O)N[C@@H](CC(C)C)C(=O)N[C@@H](CCCCNC(=O)COCCOCCNC(=O)COCCOCCNC(=O)CC[C@H](NC(=O)CCCCCCCCCCCCCCCCC(=O)O)C(=O)O)C(=O)N[C@@H](CCC(N)=O)C(=O)N[C@H](C(=O)N[C@@H](CC(C)C)C(=O)N[C@@H](CC(C)C)C(=O)N[C@@H](CCCCN)C(=O)N[C@@H](CCC(N)=O)C(=O)N[C@@H](CCC(=O)O)C(=O)N[C@@H](CCCNC(=N)N)C(=O)N[C@@H](CCC(N)=O)C(=O)N[C@@H](CCCCN)C(=O)NC(C)(C)C(=O)N[C@@H](CCC(N)=O)C(=O)N[C@@H](CCCNC(=N)N)C(=O)N[C@@H](CCC(=O)O)C(=O)N[C@@H](CCCCN)C(=O)N[C@@H](C)C(=O)N[C@@H](CCC(=O)O)C(=O)N[C@@H](CCCCN)C(=O)N[C@@H](CC(N)=O)C(=O)N[C@@H](CCCCN)C(=O)N[C@@H](CCC(N)=O)C(=O)N[C@H](C(=O)N[C@@H](CC(C)C)C(=O)N[C@@H](C)C(=O)N[C@@H](CCC(N)=O)C(=O)N[C@H](C(N)=O)C(C)C)[C@@H](C)CC)[C@@H](C)CC)[C@@H](C)CC)C(C)C)C(C)C
B5: peptide of SEQ ID NO: 156 (peptide)
peptide: IVLSLDVPIGLK([AEEA-AEEA-γGlu-C18 diacid])QILLKQERQKK[Aib]REQAETNAQILAQV-NH2
modifications: N-terminus assumed
SMILES: CC[C@H](C)[C@H](N)C(=O)N[C@H](C(=O)N[C@@H](CC(C)C)C(=O)N[C@@H](CO)C(=O)N[C@@H](CC(C)C)C(=O)N[C@@H](CC(=O)O)C(=O)N[C@H](C(=O)N1CCC[C@H]1C(=O)N[C@H](C(=O)NCC(=O)N[C@@H](CC(C)C)C(=O)N[C@@H](CCCCNC(=O)COCCOCCNC(=O)COCCOCCNC(=O)CC[C@H](NC(=O)CCCCCCCCCCCCCCCCC(=O)O)C(=O)O)C(=O)N[C@@H](CCC(N)=O)C(=O)N[C@H](C(=O)N[C@@H](CC(C)C)C(=O)N[C@@H](CC(C)C)C(=O)N[C@@H](CCCCN)C(=O)N[C@@H](CCC(N)=O)C(=O)N[C@@H](CCC(=O)O)C(=O)N[C@@H](CCCNC(=N)N)C(=O)N[C@@H](CCC(N)=O)C(=O)N[C@@H](CCCCN)C(=O)N[C@@H](CCCCN)C(=O)NC(C)(C)C(=O)N[C@@H](CCCNC(=N)N)C(=O)N[C@@H](CCC(=O)O)C(=O)N[C@@H](CCC(N)=O)C(=O)N[C@@H](C)C(=O)N[C@@H](CCC(=O)O)C(=O)N[C@H](C(=O)N[C@@H](CC(N)=O)C(=O)N[C@@H](C)C(=O)N[C@@H](CCC(N)=O)C(=O)N[C@H](C(=O)N[C@@H](CC(C)C)C(=O)N[C@@H](C)C(=O)N[C@@H](CCC(N)=O)C(=O)N[C@H](C(N)=O)C(C)C)[C@@H](C)CC)[C@@H](C)O)[C@@H](C)CC)[C@@H](C)CC)C(C)C)C(C)C
B6: peptide of SEQ ID NO: 148 (peptide)
peptide: IVLSLDVPIGLK([AEEA-AEEA-γGlu-C18 diacid])QILLKQERQKK[Aib]REQAETNKRILERV-NH2
modifications: N-terminus assumed
SMILES: CC[C@H](C)[C@H](N)C(=O)N[C@H](C(=O)N[C@@H](CC(C)C)C(=O)N[C@@H](CO)C(=O)N[C@@H](CC(C)C)C(=O)N[C@@H](CC(=O)O)C(=O)N[C@H](C(=O)N1CCC[C@H]1C(=O)N[C@H](C(=O)NCC(=O)N[C@@H](CC(C)C)C(=O)N[C@@H](CCCCNC(=O)COCCOCCNC(=O)COCCOCCNC(=O)CC[C@H](NC(=O)CCCCCCCCCCCCCCCCC(=O)O)C(=O)O)C(=O)N[C@@H](CCC(N)=O)C(=O)N[C@H](C(=O)N[C@@H](CC(C)C)C(=O)N[C@@H](CC(C)C)C(=O)N[C@@H](CCCCN)C(=O)N[C@@H](CCC(N)=O)C(=O)N[C@@H](CCC(=O)O)C(=O)N[C@@H](CCCNC(=N)N)C(=O)N[C@@H](CCC(N)=O)C(=O)N[C@@H](CCCCN)C(=O)N[C@@H](CCCCN)C(=O)NC(C)(C)C(=O)N[C@@H](CCCNC(=N)N)C(=O)N[C@@H](CCC(=O)O)C(=O)N[C@@H](CCC(N)=O)C(=O)N[C@@H](C)C(=O)N[C@@H](CCC(=O)O)C(=O)N[C@H](C(=O)N[C@@H](CC(N)=O)C(=O)N[C@@H](CCCCN)C(=O)N[C@@H](CCCNC(=N)N)C(=O)N[C@H](C(=O)N[C@@H](CC(C)C)C(=O)N[C@@H](CCC(=O)O)C(=O)N[C@@H](CCCNC(=N)N)C(=O)N[C@H](C(N)=O)C(C)C)[C@@H](C)CC)[C@@H](C)O)[C@@H](C)CC)[C@@H](C)CC)C(C)C)C(C)C

Molecular target: T1, CRF1R receptor (anti-target)
Assay: cell-based or functional assay

Binder | EC50 [nM] 0% HSA (cAMP, HTRF) | Emax (%) (100% = Sauvagine at 100 nM)
B1 | > 100 nM | 6.6%
B2 | > 100 nM | 7.2%
B3 | > 100 nM | 4.9%
B4 | > 100 nM | -8.6%
B5 | > 100 nM | 4%
B6 | > 100 nM | 2.6%
